Data reported in the supplement of paper PMC9170038.

Test system: MS2 coat protein
Assay: apparent KD of MS2 coat protein; designed switch direction (-1 OFF switch, 1 ON switch): -1; higher = weaker reporter binding
Method in brief: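 SNAP-549-labelled MS2 coat protein was titrated, doubling from 0.7 or 1.5 nM to 3 µM, over designed RNA switches transcribed on Illumina chips by stalled E. coli RNA polymerase. Runs were done without input, with 200 uM small-molecule ligand, or with an oligonucleotide input. Apparent KD is the per-design median over clusters of curve-fitted normalised fluorescence.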

[1] = input ligand: microRNA oligo, concentration not stated
[2] = Eterna round: R95, input ligand: microRNA oligo, concentration not stated
[3] = Eterna round: R95, input ligand: FMN 200 uM
[4] = Eterna round: R95, input ligand: none

Row | Sequence | apparent KD of MS2 coat protein (input ligand: FMN 200 uM) [nM] | apparent KD of MS2 coat protein (input ligand: none) [nM] | apparent KD of MS2 coat protein [2] [nM] | further results
1 | CACCGUAACAGAGGAUAUGAUACAUGAGGAUCACCCAUGUAAUAAAUGAGAAUUUCGAAUGUACCUCAGAAGGCUGGAACCGGC [Ostricism 80 - Jieux - Exclusion NG 2] (Eterna round: R96, puzzle: Exclusion NG 2) | – | – | – | apparent KD of MS2 coat protein [1]: 33.9 nM
2 | CACCGUUACUGAGGAUAUCCUACAUGAGGAUCACCCAUGUAAUAAAUGAGAAUUUCGGAUGUAUUGGAGAAGGCAGAAAUCGGC [Ostricism 62 - Jieux - Exclusion NG 2] (Eterna round: R96, puzzle: Exclusion NG 2) | 52.7 | 58.4 | – | apparent KD of MS2 coat protein [1]: 48.4 nM
3 | CACCGUUAGUGAGGAUAUAUUACAUGAGGAUCACCCAUGUAAUAAAUGAGAAUUUCGGAUGUAUGAUAGAAGGCACAAAUCGGC [Ostricism 52 - Jieux - Exclusion NG 2] (Eterna round: R96, puzzle: Exclusion NG 2) | 11.2 | 13.1 | – | apparent KD of MS2 coat protein [1]: 11.2 nM
4 | CACCUGAAGAGAGGAUAUGAUACAUGAGGAUCACCCAUGUAAUAAAUGAGAAUUUCGAAUGUAAUUCAGAAGGCUCGAUAAGGC [Ostricism 100 - Jieux - Exclusion NG 2] (Eterna round: R96, puzzle: Exclusion NG 2) | 121 | 55.3 | – | apparent KD of MS2 coat protein [1]: 45.6 nM
5 | CACGAAUAGUGAGGAUAUGUGCGACAAAGUUGCACAGAAGGCACAUGAGGAUCACCCAUGUAAGCUAGGUCGAAAGACCUAGCG [Omei Exc(NG)1 A] (Eterna round: R96, puzzle: Exclusion NG 1) | 37.4 | 24.2 | – | apparent KD of MS2 coat protein [1]: 15.3 nM
6 | CACGGCUUAGGAUAUACAUGAGGAUCACCCAUGUGGGAAAGCCAAGGCGUGGUAAAGUGUAGAAGGAAGAAGGA [Solaedra] (puzzle: Exclusion 3) | – | – | 12.5 | –
7 | CACGUGAGAGGAUAUACAUGAGGAUCACCCAUGUAUACAGCAGGGUAUGAAGACUUGGGUAGAAGGCUCGCGUG [Eternabot (L2) Solution 39] (Eterna round: R97, puzzle: Exclusion 3) | 173 | 270 | – | –
8 | CAGACACAUGAGGAUCACCCAUGUGAGGAUAUGCGUACGUUGUCCGUAGGCGACGUGCGCAGAAGGCGCAAAGG [JL-ex1-3.10 Eli mod] (puzzle: Exclusion 1) | – | – | 67 | apparent KD of MS2 coat protein [3]: 65.7 nM; apparent KD of MS2 coat protein [4]: 79.4 nM
9 | CAGCGUGAAGGAUAUACAUGAGGAUCACCCAUGUGCAACUCUCCAACUCGGACUCCCUGUAGAAGGUCGGCUUU [Eternabot (L2) Solution 88] (Eterna round: R97, puzzle: Exclusion 3) | 26.9 | 28 | – | –
10 | CAGCUGAAAGUCAGGAUAUCUAGAGCUUCGGCUCUAGAGAAGGGACAUGAGGAUCACCCAUGUGAUCACAGCUG [BmEx4/4-A1] (Eterna round: R97, puzzle: Brourd's mod of Exclusion 4) | 152 | 1900 | – | –
11 | CAGCUGAAAGUGAGGAUAUCGACUGCUUCGGCAGUCGAGAAGGCACAUGAGGAUCACCCAUGUCUCAACAGCUG [BmEx4/1-A4] (Eterna round: R97, puzzle: Brourd's mod of Exclusion 4) | 70.3 | 20.7 | – | –
12 | CAGCUGAAUGUGAGGAUAUUACGAGCCUCGGCUCGUGAGAAGGCACAUGAGGAUCACCCAUGUCUCAACAGCUG [BmEx4/2-B2] (Eterna round: R97, puzzle: Brourd's mod of Exclusion 4) | 759 | 36.2 | – | –
13 | CAGGUGUUAGGAUAUCGGAGAUUGAGGCAGACGGGAAUAUUCGAGAAGGAACAUGAGGAUCACCCAUGUAGUAG [JR_Exclu4_Sub036] (puzzle: Exclusion 4) | – | – | 23.9 | –
14 | CAGGUUAGAGGAUAUACGUAGGUACAGAUCUGUGUGUUUCUACAUGAGGAUCACCCAUGUAGAAGGCUAUCCUG [LRO-Excl2-10] (puzzle: Exclusion 2) | – | – | 25.3 | –
15 | CAGUACUGAGGAUAUACAUGAGGAUCACCCAUGUGCCUCAGGUAGGAUACUACCAUUAGUAGAAGGCAGUACUG [Fiskers Ex 3 828 mod 18] (puzzle: Exclusion 3) | – | – | 128 | –
16 | CAGUACUGAGGAUAUACAUGAGGAUCACCCAUGUGGGAGAUACUAGUGAGGUCGAUUAGUAGAAGGCAGUACUG [Mat X3R4 m21] (Eterna round: R97, puzzle: Exclusion 3) | 903 | 184 | – | –
17 | CAGUACUGAGGAUAUACAUGAGGAUCACCCAUGUGGUCCAGCUAGGAAACUAGCAAAAGUAGAAGGCAGUACUG [salish99_ex3_r3_083] (puzzle: Exclusion 3) | – | – | 71.5 | apparent KD of MS2 coat protein [3]: 12.5 nM; apparent KD of MS2 coat protein [4]: 218 nM
18 | CAGUACUGAGGAUAUACAUGAGGAUCACCCAUGUGUCUAAGGUAGGAUACUACCAUUAGUAGAAGGCAGUACUG [Fiskers Ex 3 828 mod 19] (puzzle: Exclusion 3) | – | – | 13.2 | –
19 | CAGUACUGAGGAUAUACAUGAGGAUCACCCAUGUGUUCCAGCUAGGAGACUAGCAAAUGUAGAAGGCAGUACUG [jl-ex3-4.02 salish99 mod] (Eterna round: R97, puzzle: Exclusion 3) | 615 | 406 | – | –
20 | CAGUACUGAGGAUAUACAUGAGGAUCACCCAUGUGUUCCAGCUAGGAGACUAGCAAGUGUAGAAGGCAGUACUG [jl-ex3-4.01 salish99 mod] (Eterna round: R97, puzzle: Exclusion 3) | 293 | 434 | – | –
21 | CAGUACUGAGGAUAUACAUGAGGAUCACCCAUGUGUUCCAGCUAGGAUACUAGCAAAUGUAGAAGGCAGUACUG [Mat - Exclusion 3 - Eli Mod - D8] (Eterna round: R97, puzzle: Exclusion 3) | 62.9 | 227 | – | –
22 | CAGUACUGAGGAUAUACAUGAGGAUCACCCAUGUGUUCCGGCUAGGAUACUAGCAAAGGAAGAAGGCAGUACUG [Mat - Exclusion 3 - Eli Mod - D23] (Eterna round: R97, puzzle: Exclusion 3) | 22.7 | 17.1 | – | –
23 | CAUAAGUGAGGAUAUCCUGGCCCUAUGCGUUAGGCGCGCUAGGAGAAGGCACAUGAGGAUCACCCAUGUCUCUC [Eternabot (L1) Solution 21] (Eterna round: R97, puzzle: Exclusion 4) | 76.6 | 29.7 | – | –
24 | CAUACACAUGAGGAUCACCCAUGUGAGGAUAUGAAUACGUUGUCCGUAGGCGACGUGAUCAGAAGGCGCUUGGU [Mat - Mod of JL D100] (puzzle: Exclusion 1) | – | – | 44 | –
25 | CAUACUAAAGUCAGGAUAUGCGGUCGAAUACGGGUGUAGAAGGGACAUGAGGAUCACCCAUGUAGAUAGUAAAG [EX-4 Malc #18] (puzzle: Brourd's mod of Exclusion 4) | – | – | 90.2 | apparent KD of MS2 coat protein [3]: 93.1 nM; apparent KD of MS2 coat protein [4]: 129 nM
26 | CAUACUGAAGUUAGGAUAUUCGAACGUAUACGGAUGGAGAAGGGACAUGAGGAUCACCCAUGUAGAUAGUAAAG [EX-4 Malc #11] (puzzle: Brourd's mod of Exclusion 4) | – | – | 21.5 | apparent KD of MS2 coat protein [3]: 23.1 nM; apparent KD of MS2 coat protein [4]: 23.1 nM
